Experimental data as given in paper PMC10273338, “HspB8 interacts with BAG3 in a “native‐like” conformation forming a complex that displays chaperone‐like activity” (Protein Science : A Publication of the Protein Society, 2023).

B1: HspB8 (natural protein, UniProt Q9UJY1 1-196, looked up)
chain: MADGQMPFSCHYPSRLRRDPFRDSPLSSRLLDDGFGMDPFPDDLTASWPDWALPRLSSAWPGTLRSGMVPRGPTATARFGVPAEGRTPPPFPGEPWKVCVNVHSFKPEELMVKTKDGYVEVSGKHEEKQQEGGIVSKNFTKKIQLPAEVDPVTVFASLSPEGLLIIEAPQVPPYSTFGESSFNNELPQDSQEVTCT
notes: HspB8, small heat shock protein; gene in pGEX-6P-1, provided by Serena Carra; source: E. coli BL21-CodonPlus(DE3)-RIL, purified (Glutathione Sepharose, PreScission cleavage on the resin, Superose 12 SEC); not shown: GST, N-terminal, cleaved
B2: HspB8-BAG3 complex (complex)
chain 1: B1 chain
chain 2: not shown
B3: Josephin domain of ataxin-3 (domain or fragment, UniProt P54252 1-180, looked up)
chain: MESIFHEKQEGSLCAQHCLNNLLQGEYFSPVELSSIAHQLDEEERMRMAEGGVTSEDYRTFLQQPSGNMDDSGFFSIQVISNALKVWGLELILFNSPEYQRLRIDPINERSFICNYKEHWFTVRKLGKQWFNLNSLLTGPELISDTYLALFLAQLQQEGYSIFVVKGDLPDCEADQLLQM
notes: cloned in pET21-a; likely residues 1-182 of human ataxin-3 (surmised). pET21-a may add a C-terminal His6 tag; also called JD; source: E. coli BL21 Tuner (DE3) pLacI, purified as previously described (Bonanomi et al., 2015)

Legend:
[1] = biological target: T1, BAG3 (Bcl-2 associated athanogene protein 3) (human, UniProt O95817 1-575); test: SPR; BIACORE X; HspB8 amine-coupled to a CM5 chip (7400 RU); running buffer 10 mM HEPES pH 7.4, 150 mM NaCl, 3 mM EDTA, 0.005% P20; 10 uL/min; Langmuir 1:1 fit; details: both partners purified
T1 construct: BAG3, human; no removal of the tag is described; source: E. coli M15 (pREP4), purified (HisPur Cobalt resin, Superose 12 SEC)
T1 sequence (O95817 whole entry): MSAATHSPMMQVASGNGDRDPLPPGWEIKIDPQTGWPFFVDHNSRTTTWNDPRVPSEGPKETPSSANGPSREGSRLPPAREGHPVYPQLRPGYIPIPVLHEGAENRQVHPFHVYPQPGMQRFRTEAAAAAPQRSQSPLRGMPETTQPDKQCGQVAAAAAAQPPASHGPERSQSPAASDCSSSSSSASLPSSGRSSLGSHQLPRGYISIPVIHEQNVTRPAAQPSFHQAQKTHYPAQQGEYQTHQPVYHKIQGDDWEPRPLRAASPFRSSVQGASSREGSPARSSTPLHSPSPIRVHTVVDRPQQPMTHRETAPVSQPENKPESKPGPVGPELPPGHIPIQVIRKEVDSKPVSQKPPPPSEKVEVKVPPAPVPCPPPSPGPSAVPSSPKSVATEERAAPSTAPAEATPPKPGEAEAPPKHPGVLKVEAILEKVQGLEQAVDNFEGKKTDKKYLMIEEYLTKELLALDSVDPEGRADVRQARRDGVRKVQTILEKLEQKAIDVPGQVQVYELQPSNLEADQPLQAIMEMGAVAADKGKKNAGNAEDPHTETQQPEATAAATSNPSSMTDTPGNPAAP

[2] = biological target: T1, BAG3 (Bcl-2 associated athanogene …); test: SPR; BIACORE X; BAG3 amine-coupled to a CM5 chip (3400 RU); running buffer 10 mM HEPES pH 7.4, 150 mM NaCl, 3 mM EDTA, 0.005% P20; 10 uL/min; Langmuir 1:1 fit; details: both partners purified
[3] = biological target: B3; test: cell-based or functional assay
HspB8-BAG3 complex = biological target: B2; test: SPR; BIACORE X100; JD amine-coupled to a CM5 chip (3000 RU); single cycle kinetics at 25°C, 10 uL/min, 10 mM HEPES pH 7.4, 150 mM NaCl, 3 mM EDTA, 0.005% P20; Langmuir 1:1 fit, complex assumed to bind JD 1:1; details: both partners purified
HspB8-BAG3 complex, sequence (O95817 whole entry, one chain of several): as the sequence (O95817 whole entry) above

HspB8 = biological target: B1; test: as above; details: both partners purified
[4] = biological target: T1, BAG3 (Bcl-2 associated athanogene …); test: as above; details: both partners purified

Binder: B1
Ka [1]: 4.2e+08 M⁻¹ | Kd [1]: 2.4 nM | koff [1]: 0.00022 s⁻¹ | kon [1]: 93000 M⁻¹ s⁻¹ | Ka [2]: 2.2e+08 M⁻¹ | Kd [2]: 4.5 nM | koff [2]: 0.00056 s⁻¹ | kon [2]: 130000 M⁻¹ s⁻¹ | inhibition of JD aggregation (ThT fluorescence, 10 uM JD at 37°C with HspB8 at different molar ratios; 20% at JD:HspB8 1:0.093, maximum at 4:1) [3]: 35%

Binder: B2
inhibition of JD aggregation (ThT fluorescence, 10 uM JD at 37°C with the HspB8-BAG3 complex at different ratios; maximum at JD:complex 1:0.5) [3]: 40%

Binder: B3
Ka (HspB8-BAG3 complex): 1.4e+07 M⁻¹ | Kd (HspB8-BAG3 complex): 73 nM | koff (HspB8-BAG3 complex): 0.00024 s⁻¹ | kon (HspB8-BAG3 complex): 3300 M⁻¹ s⁻¹ | Ka (HspB8): 120000 M⁻¹ | Kd (HspB8): 8.1 µM | koff (HspB8): 0.0006 s⁻¹ | kon (HspB8): 74 M⁻¹ s⁻¹ | Ka [4]: 190000 M⁻¹ | Kd [4]: 5.4 µM | koff [4]: 0.0014 s⁻¹ | kon [4]: 260 M⁻¹ s⁻¹
